Data reported in the supplement of paper PMC7877785.
± gives the uncertainty stated by the source.

Assay: self-splicing fitness, log relative to wild type (ln ratio); higher = more splicing; Tetrahymena group I intron in knt gene, E. coli kanamycin selection, DiMSum; sequences stand for … in CUCUCU…GGAGGGAAAAGUUAUCAGGCAUGCACCUGGUAGCUAGUCUUUAAACCAAUAGAUUGCAUCGGUUUAAAAGGCAAGACCGUCAAAUUGCGGGAAAGGGGUCAACAGCCGUUCAGUACCAAGUCUCAGGGGAAACUUUGAGAUGGCCUUGCAAAGGGUAUGGUAAUAAGCUGACGGACAUGGUCCUAACCACGCAGCCAAGUCCUAAGUCAACAGAUCUUCUGUUGAUAUGGAUGCAGUUCACAGACUAAAUGUCGGUCGGGGAAGAUGUAUUCUUCUCAUAAGAUAUAGUCGGACCUCUCCUUAAUGGGAGCUAGCGGAUGAAGUGAUGCAACACUGGAGCCGCUGGGAACUAAUUUGUAUGCGAAAGUAUAUUGAUUAGUUUUGGAGUACUCGUGGUCG
Procedure, shortened: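 The eight P1ex-region nucleotides of an intron in the knt kanamycin-resistance gene on pET-22b(+) were all randomised and the library put into E. coli BL21(DE3). Six replicate transformations were grown overnight at 37°C or 30°C on LB agar with or without 25 μg/mL kanamycin, together with 100 μg/mL carbenicillin, 50 μM IPTG and 0.2% rhamnose. Colonies were pooled and amplicon-sequenced on an Illumina HiSeq 2500. Fitness from DiMSum is the error-weighted combination of wild-type-normalised replicate fold changes, kanamycin over none.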

Sequence | self-splicing fitness (ln) (30 °C) | self-splicing fitness (ln) (37 °C)
AAAUAGCAAUAUUACGUGAC | -1.53 ± 0.2 | –
AAAUAGCAAUAUUACGUGUA | -2.49 ± 0.091 | -1.44 ± 0.09
AAAUAGCAAUAUUACGUGUU | -1.72 ± 0.083 | -1.75 ± 0.11
AACAAGCAAUAUUACGAAGA | -2.78 ± 0.12 | -2.12 ± 0.14
AACAAGCAAUAUUACGACAU | -0.261 ± 0.01 | 0.0604 ± 0.032
AACAAGCAAUAUUACGAGCC | -3.25 ± 0.47 | -2.09 ± 0.36
AACAAGCAAUAUUACGAGUU | -3.35 ± 0.099 | -1.5 ± 0.091
AACAAGCAAUAUUACGAUAC | -3.73 ± 0.19 | -1.71 ± 0.12
AACAAGCAAUAUUACGAUCG | -1.4 ± 0.076 | -0.996 ± 0.097
AACAAGCAAUAUUACGCCAU | -2.66 ± 0.11 | -2.08 ± 0.13
AACAAGCAAUAUUACGCCGA | -1.45 ± 0.12 | -1.27 ± 0.12
AACAAGCAAUAUUACGCCGG | -0.692 ± 0.075 | -0.963 ± 0.12
AACAAGCAAUAUUACGCGUG | -1.35 ± 0.04 | -0.814 ± 0.056
AACAAGCAAUAUUACGGGUC | -1.68 ± 0.14 | -1.65 ± 0.17
AACAAGCAAUAUUACGGUGG | -1.84 ± 0.06 | -0.813 ± 0.073
AACAAGCAAUAUUACGUCAG | -3.64 ± 0.16 | -2.39 ± 0.14
AACAAGCAAUAUUACGUCCA | -1.12 ± 0.068 | -0.468 ± 0.076
AACAAGCAAUAUUACGUCUA | -0.68 ± 0.053 | 0.247 ± 0.063
AACAAGCAAUAUUACGUGAG | -1.74 ± 0.05 | -1.01 ± 0.067
AACCAGCAAUAUUACGACAG | -2.65 ± 0.083 | -0.775 ± 0.099
AACCAGCAAUAUUACGACUU | 0.018 ± 0.059 | 0.437 ± 0.077
AACCAGCAAUAUUACGAGAG | -3.44 ± 0.15 | -2.06 ± 0.12
AACCAGCAAUAUUACGAGUC | -1.82 ± 0.1 | -0.825 ± 0.11
AACCAGCAAUAUUACGAUAA | -1.35 ± 0.058 | -0.457 ± 0.069

Sequence | self-splicing fitness (ln) (30 °C) | self-splicing fitness (ln) (37 °C)
AACCAGCAAUAUUACGAUGA | -0.753 ± 0.069 | -0.507 ± 0.08
AACCAGCAAUAUUACGCAGC | -2.4 ± 0.11 | -1.29 ± 0.11
AACCAGCAAUAUUACGCCAG | -2.46 ± 0.14 | -1.72 ± 0.18
AACCAGCAAUAUUACGCCCG | -0.353 ± 0.1 | -0.271 ± 0.17
AACCAGCAAUAUUACGCGUC | -2.08 ± 0.089 | -1.12 ± 0.095
AACCAGCAAUAUUACGGACA | -0.462 ± 0.077 | -0.0476 ± 0.095
AACCAGCAAUAUUACGGCCA | -0.365 ± 0.067 | -0.114 ± 0.085
AACCAGCAAUAUUACGGGAG | -0.751 ± 0.036 | -0.132 ± 0.051
AACCAGCAAUAUUACGGGCC | -1.4 ± 0.082 | -0.824 ± 0.11
AACCAGCAAUAUUACGGGUA | -0.823 ± 0.045 | -0.376 ± 0.055
AACCAGCAAUAUUACGGUAC | -2.82 ± 0.12 | -1.1 ± 0.088
AACCAGCAAUAUUACGGUCC | -0.721 ± 0.089 | -0.491 ± 0.12
AACCAGCAAUAUUACGUCCU | 0.026 ± 0.043 | -0.134 ± 0.053
AACCAGCAAUAUUACGUGAC | -2.59 ± 0.087 | -1.37 ± 0.1
AACCAGCAAUAUUACGUUGG | -3.14 ± 0.12 | -2.42 ± 0.13
AACGAGCAAUAUUACGAACC | -3.57 ± 0.49 | -1.66 ± 0.35
AACGAGCAAUAUUACGACCG | -3.46 ± 0.34 | –
AACGAGCAAUAUUACGACGC | -2 ± 0.14 | -0.785 ± 0.18
AACGAGCAAUAUUACGACGU | -0.822 ± 0.09 | -0.593 ± 0.089
AACGAGCAAUAUUACGAGGA | -2.36 ± 0.28 | -2.34 ± 0.42
AACGAGCAAUAUUACGCCGA | -2.83 ± 0.25 | -2.42 ± 0.17
AACGAGCAAUAUUACGGAUC | -2.26 ± 0.19 | -2.31 ± 0.17
AACGAGCAAUAUUACGGCAA | -1.49 ± 0.27 | -1.9 ± 0.24
AACGAGCAAUAUUACGGCAU | -1.91 ± 0.1 | -0.446 ± 0.12
